According to the domain aggregation screens of Martell et al. (2025):

Assay: soluble fraction after stress (log2 fold change); higher = more stays soluble; pooled small domains, quantitative proteomics
Details: stress: 50 degC
How it was run: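 Quantitative proteomics served as the high-throughput read-out for pooled custom libraries of small protein domains. Each was stressed at 50°C. Aggregation propensity is expressed as the base-two log fold change in soluble protein after stress. A higher value means a larger share of the protein remains in solution.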

Sequence | soluble fraction (log2)
HMEMDITIQMRTLVEELNRASDAYYNGRGELMTDYEWDAKFDQLKQLESQSGVVLPDSPTHRV | -0.162
HMEMELNHVARRAGRLSGFLKGELRLSTGLMNRLKWSNAILVNGKPARTNAQVEPGDRITVILD | -0.976
HMEMLQENIRNLRKAKGWSQEELAIKLNVVRQTVSKWEKGLSVPDSQMLIRIADELDTTVAILLG | -0.246
HMEMLQRFIFLENVSSTQVESAIKELHPNLNLKRVKLSFPGADTVLLKGPKQDLELAEELIRHLDRSE | -0.0342
HMEMPGGVMRTLSTIAYNQPVLQSKLVKVRGPRAYEDVHILRDMGLVSARSVGQTVELSTTPKFAEQF | -0.265
HMENEIFVPKVFMDWYNKVDKSIKVFKAFNLIEKETDPRLKEWVEDNQDEFAKIWLGQLLPVV | -0.0598
HMENFIPDDPKRIEIGMSVLHQRFGKGKVMQLEGNLPDMKATVNFEGEGQKQLLLKYARLKIV | -0.232
HMENIDVGQDYKVTMNTIQNLMKTGLVTGTQYKELLREMGVHSGMGAITAQQHQIALDFLNKTMDSA | 0.285
HMENIIKISASYEGLRVDQFLSNYLKISRSKVQKYISEEKIFLNNVPTKTNRKVKLDDIISYNLNF | -3.01
HMENITTILRSIKNEIKKNSTFVGDDFVNQARSMNQGQIKEKSIYGHGTKKEIEELRDEGVDVLNIPWIT | -0.162
HMENKIIKNAAHATLKVKKDAGIEITTELIREAVILFHRIYSPNDNPNINWERIINELESHYT | -2.77
HMENLFPDYTMQDYRIVRSELSSKFKVQTVPVTTATATENKIVRQEPEAGSRITEGMTVILYYSIGPE | -0.0582
HMENLRLSELTVERGHRLAGRTLADIASAPNSPKYLIVLIQRGQETVIPTGSTVILPGDVLILAQS | -0.605
HMENMSFGTKLYTWLYGKLVGSDEIGNKYYTNINDPSDLNAKRWVIFNGEIEASKIPPHWHAWLHKSIDK | -0.646
HMENMTLGQRIQALRKQHGLSQEGLGERLGVSRQAISRWEMDGAVPEVDKLIAMARLFGVSLNQLLGVE | -0.193
HMENNIPANIKALIISYVNQNYPGAVIHSIERNSNGTYDVEIYYNNREYDLLFDAQGNFISGNVDDQ | 0.0611
HMENNIRLSVPDTESGQRIDSYLAEQIPGLTRSAVQNLLAEQAVTIAGKAVKKNYKLLGGEDILVQLPEVR | 0.216
HMENPPISVVIPPSFRGQRIDKALGSLIGDYSRSKIQQWLQSGLVQSAGEPLLPKYTVLGNEQILIAVPS | 0.00382
HMENQGEDMRQQVKALVNADKTNITKLATATGYSRSTISMYLAGNYKGDVEAVERRLEEYMKTQG | -0.0136
HMENSYSVEDLALKAAISVDTIRYYQGLGLISPPQKNGRRAIYGNDHISRLEEIKKLAFEGFSLRQISLL | -0.224
HMENTIPSVIGRTLSDGVFLLESYGYVKGNVSEEFSEMPIGVIIRQFPGAGSAAEAGTRVDLVVSKGEEIV | -0.0523
HMENVALYIRLKSMASVYDDVHGYNIEWIKSMIGLSIDIEKLRTVLEDVSWITKVEEDVYSFSKNAKPFE | -4.31
HMENVQLRNFAIKATEAGIIKLSSDQRTFMWASNQKKLMTVPFDEHPYSAMAQFFKTDEGLAVFKSIEKKL | -1.12

Sequence | soluble fraction (log2)
HMEPADALVAALVARGVSPSTARITVKQYPATRIQPQLEVFDYLVAQKDPKVSRNPPGFLLSAIRGEYA | -0.188
HMEPAPELTPREQQVLARIALGMTDKAIAEELGVSHQTVRNHVARIYQKIKVHSRSQAVVWAREKGI | -0.192
HMEPDEESVRLKEEILSRIDYWHTTMPYMGTRKLAAKLRTEGYAVGRKLVRTYMREMGIHAVYP | -0.132
HMEPELSVDMKPLDGLLLAIKKELQAAQMYTRLARASADAEQKMVFEQLANMEKGHKARLEDIYT | -0.0279
HMEPESTMIEISETLTNERLDRYLATKLPNVSRGGIQRLLREGNILVNGKKAKPTQHPVAGQKIEITWPNP | 0.0857
HMEPEYIGELEKRIKKLKTHTYSSIDRLMKSISKKYKITTQVLHDDFKNKHNEIPDEWVKQF | -0.0578
HMEPKIKQIVPNVVNYPVEDAKNVLVNSGLIVQIRGQGNIVYDQVPKGGAEVTRGTTVILDLNPPPGA | 0.42
HMEPKQIEVPNLVGISSAAARQTLSALGLHAVVKDSIWSETERIDTVLEQNPAGGALIKPEGTVYLRVSR | 0.033
HMEPLIRTLEEQIAEKIKNYRKGTRVYDAEHVDRWISQLPEEERMVVLTETNRLLEQNYVDQAKLME | -0.107
HMEPMLEIFDAKIDLADVLAVESGLVRLRGGAEVTSPRVDVDAGARLELDSGARLNVERLSY | 0.0258
HMEPMTDQQILEGFAEFKRQNPDLMNRPATQAIVNLTLPGGTPISFRSGAGAAALNQYLESIGMRAGP | 0.202
HMEPPAPAPDIPYPSRVTVRREVDGWPHYYGTWTRTPPVLGYEGIWLVGVSLDGKVQFVPVDDVTIA | -0.627
HMEPREEFTFADLRANGLNGTAAAAGRRAALGAALGIGYGNAKQFLRRLNHYGVTRSEWEAALADLDE | -0.419
HMEPSERYKALQSLLPDYAKRLKKKGVTRHQLFLEYRLTHPDGYARSRFGTYFQAYLALSHP | -2.27
HMEPTLVVARDKDAKSPLVAKLMKELGVDAAPRVIVDDSVIGGAKLSHNHTEIDATYKTALINLYQAIT | 0.126
HMEPVFSDPARQTLYQEVMELPAKYRVPLYLYYYEGYKVDEVGELLGLNASTVQTRLARARAKLKIQL | -0.627
HMEQETVTVPDLVGKDVVAAQAELHEMGLSGKPDGTGTTVVSQFPVAGARVLKHTNVILYTED | -0.0147
HMEQFRENIVRIYMEIDDYENGAKFLEMGNNRDASFYELAGDFYKYFGENELANENYDLAISA | -0.387
HMEQIPEEYKKIYSLITDIPININDIAKKSLLELREVSSKLTMLELDGKVVKLPGNMYIRGDL | 0.0726
HMEQKELAPLVPQEDGSVKLTNLAGYSMREVAAALEGGNLSLIPIGSGTSWKQDPAPGTVLQPGNTVTVYF | 0.00354
HMEQPLSLKLANNAFSRFWGNANPAEKDTQPNNSDIAKWVIEQSGGKITQTMADKIAQIIRPEWAA | 0.184
HMEQSGDELKTWVDQAIAAYPEKVKEYQQGKKGLLALFIGEVMKRSKGTADPKKVNQLVTEALS | 0.045
HMEQTMNDMLKLVDLLPQNQQDIVRMRFYENMSFKEIAESNQISINTALGRMRYAILNLRKYAAERNL | -2.35

Sequence | soluble fraction (log2)
HMEQVLDEEIIKSAVQKVIKDNPSAVSDYKAGKKTAFQFLIGKAMAELQGKGHPGKISELLEKE | 0.439
HMEQVQQIPIEELFPFKEHPFKVLDDEAMQRTVESVAQYGVLAPLIARPRPEGGYEIISGHRRQHAAELYR | -0.0852
HMEQWVSIEVEPGIRLDVALTEATQKSRSFIQNLIAEQRVLVNGQPKKANYKVRPGDHVELNYPEPT | 0.0849
HMEREKTYLMPDLIGRKAERVVPRLQASGFKVEDIRHVYYPGLEKGVIVRQSPPGGYPIQKRNLINLEVS | -0.333
HMERLKKYLDDVRTFLPGTNPKKVDEILREIESHVLERAEREHGEVNDNAVAMSIKEYGSPEEVAARYYEG | 0.194
HMERLSNQVYAILKEMIADYRFNPGARINVEQIAKEVGASRTPVWEAVHRLVQEGLLENIPNRGVFML | -1.41
HMERNAEDFAAKYQEIYQDMFRFALYTLKNRQEAEDVVSETVLDAWKGIEGLKNESAFSAWMFRILVNK | 0.152
HMESADEESNALMYDGLLAMRGKRYEVALEFFDALVKHDPDFAEGWNKRATVLYLLGRYERSIADIKQVLA | -0.0654
HMESAEQTGEELAARVNVLQTVSQALARELGREAAVEELADKMKMTVDEVKDIMKMAMDAMSM | 0.168
HMESAESRVDLIGMIGEAITDLRPAGTAQFGEERIDVVSESEWITEGSTVKVVSAEGYRHVVRVME | -0.162
HMESENANVNRAMLTGIASMHAGQLETALNKFNEVIQLAPDFAEGWNKRATIFYLMKKFDRSVNDIAQTLK | -0.0738
HMESFGVAIKRLREAQGWTRADFLRQLGKTGYYMHATTLKRIEEGEQIAKVHEAVIISRLFGVTVEEMG | -2.94
HMESGFEAVREVARHGSFANAAKALGVSGPAVSRQVKSLEERLGLVFFHRTTRMVTLTEAGQQLVDTLD | -0.00498
HMESGNLIFTNAPIADVVNAIETRYGKKLQASNQTSDLQFTGIFKNTDEFSTVVKTIEIALGLQFEV | -1.19
HMESIEAGTFELDNKTSIDISEDEANLLNKMFEELTETNSKDMYGVMVADEAGFNEILEFAKENL | 0.167
HMESNWLTYAKRIQSIADTGMTFAVDDFDKERYQELADISSKMLADLSNIPIGRIENLLGPLGQ | -0.75
HMESPVNTLPEDQRAWYKALPPELSTKTAVEAGAGVGVSERTVKRLLSNQTFFINLQRGNYRKRH | 0.172
HMESRMTYLQKTKLATENLDAKLIDHQQWVAEVLGEDYRGVYSDEYLRRAAKVFAIFVNNLDD | -2.18
HMESRRVTLLLPYDKAGIADTLRREAAVLSLEYGEDGVTVEAVVKPELWGLVREYVQNDNPK | 0.166
HMESVTETFLTNLINRYIADKAGYIISYPSEYRIEVLYHGGQVLDYENLRKSINTYIPAHIGYKLVTI | -0.112
HMESYDSEIKEVLDLAGKGRWEEAQTKADALREMAPNNSLVERLHGWVLQAAHQRREQALENDIRE | 0.286
HMESYTEEMLEKMSVSKLRTIARELQVDNMTREQIRFGKKTELIQNILEFTGREIENMQLYDK | -0.134
HMESYWVVLRPMAAGTQIGANDLGYRSVALGAAAKNYLAASTNPIGSITRRRLVAGELLQGSSLTDDARA | -0.873
